This is an account of results in PMC8593141.

The target of the assay is mouse Kv4.2 channel with GFP fused to the C-terminus (Kv4.2g) (mouse) (UniProt Q9Z0V2). Put plainly: co-IP; anti-GFP IP (Pierce Classic Magnetic IP/Co-IP kit, overnight 4°C, lysis buffer with 20 mM NEM and protease inhibitors) from lysates (0.5 mg protein) of HEK cells expressing Kv4.2g + HA-KChIP2a + HA-DPP10c, with or without co-transfected SUMO2 + Ubc9; blot for α-adaptin, stripped and re-probed for Kv4.2g; OD α-adaptin ÷ OD Kv4.2g.
Chain of UniProt Q9Z0V2 (Q9Z0V2 whole entry, the tested form may be a part): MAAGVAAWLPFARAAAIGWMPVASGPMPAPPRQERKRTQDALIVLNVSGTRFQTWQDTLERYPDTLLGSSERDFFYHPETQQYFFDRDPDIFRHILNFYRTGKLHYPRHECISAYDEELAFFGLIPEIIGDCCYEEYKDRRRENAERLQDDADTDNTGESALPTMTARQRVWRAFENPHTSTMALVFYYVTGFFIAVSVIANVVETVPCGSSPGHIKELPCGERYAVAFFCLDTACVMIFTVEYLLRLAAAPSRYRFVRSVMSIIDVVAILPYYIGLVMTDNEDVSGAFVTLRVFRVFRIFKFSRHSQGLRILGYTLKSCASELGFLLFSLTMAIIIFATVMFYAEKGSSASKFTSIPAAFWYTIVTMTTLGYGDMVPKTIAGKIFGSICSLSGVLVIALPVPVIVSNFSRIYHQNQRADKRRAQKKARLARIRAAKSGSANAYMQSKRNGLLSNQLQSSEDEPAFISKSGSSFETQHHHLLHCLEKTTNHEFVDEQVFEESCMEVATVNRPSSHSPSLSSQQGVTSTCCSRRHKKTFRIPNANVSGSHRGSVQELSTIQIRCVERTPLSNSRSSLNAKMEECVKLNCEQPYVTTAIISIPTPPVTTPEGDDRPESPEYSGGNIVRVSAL

With “α-adaptin subunit of adaptor protein 2 complex (AP2) (from UniProt O95782 1-977) (natural protein)”, the OD α-adaptin ÷ OD Kv4.2g in the anti-GFP IP (control, without SUMO2 + Ubc9) turned out to be 0.02 and the OD α-adaptin ÷ OD Kv4.2g in the anti-GFP IP (with co-expressed SUMO2 + Ubc9) was found to be 0.02.
